Experimental findings from US20200369772A1 (ABBA THERAPEUTICS, published 2020) are described below.

The target of experiment [1] is T1, human PD-L2 (full-length, on cells) (human, UniProt Q9BQ51 20-273).
T1 chain: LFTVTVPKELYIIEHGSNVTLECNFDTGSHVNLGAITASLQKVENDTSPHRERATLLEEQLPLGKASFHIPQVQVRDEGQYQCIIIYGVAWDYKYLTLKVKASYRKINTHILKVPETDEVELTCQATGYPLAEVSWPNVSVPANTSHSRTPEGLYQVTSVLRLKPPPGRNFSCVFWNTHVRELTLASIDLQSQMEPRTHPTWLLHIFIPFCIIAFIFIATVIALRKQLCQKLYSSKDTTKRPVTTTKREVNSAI
As to the kind of experiment: FACS, NCI-H226 cells. Put shortly: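 Binding EC50 values come from non-linear fits, made in GraphPad Prism, of percentage of maximal binding plotted against concentration. The underlying binding to endogenous PD-L2 was measured by BD FACSCalibur flow cytometry on 1.5×10⁵ NCI-H226 human lung squamous carcinoma cells, with detection by APC-labelled goat anti-rat IgG (1:2000, 20 min, 4° C).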
In general terms: A flow cytometer gives signals particle by particle.

Experiment [2] concerns the target T2, human PD-L2 (full-length, on cells) (human, UniProt Q9BQ51 20-273).
T2 construct: whole, on cells; CHO-K1 cells stably expressing full-length human PD-L2; also endogenous on NCI-H226 and transfected in Jurkat cells; also called hPD-L2; CHO-K1/hPD-L2
T2 sequence (looked up): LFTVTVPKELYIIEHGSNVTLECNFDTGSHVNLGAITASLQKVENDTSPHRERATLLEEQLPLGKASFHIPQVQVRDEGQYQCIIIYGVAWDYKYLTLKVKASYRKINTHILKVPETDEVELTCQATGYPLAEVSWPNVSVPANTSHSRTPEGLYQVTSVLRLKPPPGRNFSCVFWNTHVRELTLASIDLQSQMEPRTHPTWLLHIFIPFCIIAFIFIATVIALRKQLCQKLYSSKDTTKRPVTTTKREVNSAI
As to the kind of experiment: hybridoma supernatant screen on cells expressing human PD-L2.

The target of experiment [3] is T3, human PD-L1 (full-length, on cells) (human, UniProt Q9NZQ7 19-290).
T3 construct: whole, on cells; HEK293 cells stably expressing full-length human PD-L1
T3 sequence (Q9NZQ7 19-290): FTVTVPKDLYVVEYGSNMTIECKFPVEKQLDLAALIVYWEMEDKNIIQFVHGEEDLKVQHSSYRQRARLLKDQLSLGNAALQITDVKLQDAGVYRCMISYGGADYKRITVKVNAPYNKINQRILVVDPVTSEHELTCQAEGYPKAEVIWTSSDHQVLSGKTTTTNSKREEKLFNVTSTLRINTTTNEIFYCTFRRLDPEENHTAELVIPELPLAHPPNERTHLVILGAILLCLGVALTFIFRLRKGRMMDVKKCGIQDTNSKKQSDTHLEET
As to the kind of experiment: FACS on HEK293 cells stably expressing full-length human PD-L1. Here is the method:
(§1) The ability of anti-PD-L2 antibodies binding to mouse PD-L2, human PD-L1 or cyno PD-L2 was determined by FACS. HEK293 cells stably expressing full-length monkey PD-L2, mouse PD-L2 or human PD-L1 were established, subcloned and verified. For binding assay, 1.5×10⁵ cells in 100 μl of FACSwash buffer were incubated with individual anti-PD-L2 antibodies (0.5 μg/ml) for 30 min. After three times of washing, the cells were re-suspended in FACSwash buffer containing FITC-labelled goat-anti-rat IgG (Thermo Fisher, 1:1000) or APC-labelled goat-anti-ratIgG (Biolegend, Clone Poly4054) at a 1:2000 dilution for 20 min at 4° C., washed three times and subsequently subjected to FACS analysis. FACS data was analysed using FlowJo Software and depicted as histograms including secondary antibody only controls.

Experiment [4] has as its target T4, mouse PD-L2 (full-length, on cells) (mouse, UniProt Q9WUL5 20-247).
T4 construct: whole, on cells; HEK293 cells stably expressing full-length mouse PD-L2
T4 sequence (looked up): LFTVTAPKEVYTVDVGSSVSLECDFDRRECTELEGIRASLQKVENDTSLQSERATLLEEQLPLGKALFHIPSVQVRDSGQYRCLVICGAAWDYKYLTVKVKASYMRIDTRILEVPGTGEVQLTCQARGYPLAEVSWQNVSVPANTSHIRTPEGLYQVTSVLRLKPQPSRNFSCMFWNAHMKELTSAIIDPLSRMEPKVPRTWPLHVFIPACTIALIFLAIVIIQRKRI
As to the kind of experiment: FACS on HEK293 cells stably expressing full-length mouse PD-L2. As to the method: as §1

In experiment [5] the target is T1, human PD-L2 (full-length, on cells). As to the kind of experiment: FACS, CHO-K1 expressing human PD-L2. In short, it runs like this: (§2)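 Binding EC50 values were derived in GraphPad Prism by non-linear curve fitting of percentage of maximal binding versus concentration. The binding data came from flow cytometry on a BD FACSCalibur, using CHO-K1 cells stably expressing full-length human PD-L2. Detection used APC-labelled anti-rat IgG or anti-human IgG Fc, according to the antibody format, applied for 20 min at 4° C.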

Experiment [6] concerns the target T5, recombinant human PD-L2-Fc-biotin (human, UniProt Q9BQ51 20-220, biotin).
T5 chain: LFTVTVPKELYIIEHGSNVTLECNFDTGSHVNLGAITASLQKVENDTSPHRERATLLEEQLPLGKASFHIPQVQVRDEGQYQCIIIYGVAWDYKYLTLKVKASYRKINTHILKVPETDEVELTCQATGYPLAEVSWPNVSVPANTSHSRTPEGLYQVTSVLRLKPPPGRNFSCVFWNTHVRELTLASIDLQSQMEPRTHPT
As to the kind of experiment: blocking of hPD-L2 binding to HEK293-hPD-1 cells. Put shortly: (§3)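 After 60 min at 4° C in 100 μl, mixtures of serially diluted antibody (0.03 ng/ml-0.5 μg/ml) and recombinant human PD-L2-Fc-biotin (5 ng/ml, 100 pM) were given 30 min at 4° C on 1.5×10⁵ HEK293 cells stably expressing human PD-1. Fluorochrome-conjugated streptavidin and flow cytometry measured the bound ligand against control wells marking 0% and 100% binding. IC50 values came from non-linear curve fitting in GraphPad Prism.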

Experiment [7] deals with T1, human PD-L2 (full-length, on cells). As to the kind of experiment: blocking of hPD-1 binding to CHO-K1/hPD-L2 cells. Put shortly: (§4)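 CHO-K1 cells (1.5×10⁵) stably expressing human PD-L2 were incubated with serially diluted antibody (0.25 ng/ml-4 μg/ml) for 30 min at 4° C and washed. They were then incubated with 0.5 μg/ml recombinant human PD-1-mouse Fc for 30 min at 4° C and stained with fluorochrome-conjugated anti-mouse IgG2a (1:200) for 20 min at 4° C. Bound PD-1 was read by flow cytometry, with unspecific IgG wells setting 0% and 100% binding. IC50 came from non-linear curve fitting in GraphPad Prism.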

For experiment [8] the target is unchanged. As to the kind of experiment: FACS binding to CHO-K1 cells expressing human PD-L2. Put shortly: as §2
The target is the same in experiment [9]. Described as above. In short, it runs like this: as §2
For experiment [10] the target is unchanged. As to the kind of experiment: FACS blocking of PD-1 binding to CHO-K1/hPD-L2; high antigen concentration. Put shortly: as §4
The target in experiment [11] is T5, recombinant human PD-L2-Fc-biotin. As to the kind of experiment: blocking of PD-L2 - PD-1 interaction (cell binding); low antigen concentration. In short, it runs like this: as §3
Experiment [12] addresses T2, human PD-L2 (full-length, on cells). As to the kind of experiment: FACS binding on cells expressing human PD-L2 (per the examples).

One may read the EC50 as the concentration giving half of the maximal effect. Read a low EC50 as higher potency in that assay. In general, IC50 refers to the concentration that gives 50% inhibition.

B1: 10A9-D2 (antibody, V domains shown)
VH: QVQLQESGPGLVKPSETLSLTCAVSGGSISSSYWWSWVRQPPGKGLEWVGEVFHVGVTNYNPSLKSRVTISVDKSKNQFSLKLTSVTAADTAVYYCARVTGTTGYYHGLDVWGQGTTVTVFS
VL: DIQMTQSPSSLSASVGDRVTITCRASQGIRNDLGWYQQKPGKVPKRLIYAASSLQSGIPSRFSGSGSGTEFTLTISSLQPEDFATYYCLQHNNYPRTFGQGTKVEIK
notes: Both formats under this entry
On to B1, for which the EC50 in [1] turned out to be 0.0776 nM; in experiment [5] it was 0.252 nM; in experiment [8], 0.38 nM; in experiment [9], 0.32 nM. The values for the binding result in experiment [2], in [3] and in experiment [4] were “binds”, “no binding (tested: 0.5 µg/ml)” and “no binding (tested: 0.5 µg/ml)”, respectively. The IC50 in experiment [6] was 0.012 nM; in [7] it was 0.34 nM; in experiment [10], 0.198 nM; in experiment [11], 0.0103 nM.

B2: 7H5-C5 (antibody, V domains shown)
VH: QVQLVESGGGLVKPGGSLRLSCAASGFSLSDYYMSWTRQAPGRGLEWVSFISSSGSTIYYVDSVKGRFTISRDHAKNSLYLQINSLRAEDTAVYYCARAQWLPDFDYWGQGTLVTVSS
VL: QSALTQPPSASGSPGQSVTISCTGTSSDVSGYNYVSWYQHHPDKAPKLLIYEVNKRPSGVPARFSGSKSGNTASLTVSGLQAEDEADYYCTSFADNNNVVFGGGTKLTVLG
notes: Both formats under this entry
In the case of B2, the EC50 in [1] was 0.517 nM; in experiment [5], 0.765 nM; in experiment [8], 1.6 nM. Further, the figures for the binding result in experiment [2], in [3] and in experiment [4] were “binds”, “no binding (tested: 0.5 µg/ml)” and “no binding (tested: 0.5 µg/ml)”, respectively. Further, the IC50 in experiment [6] is 0.026 nM; in experiment [7], 0.93 nM; in [10], 0.58 nM; in experiment [11], 0.0311 nM.

B3: 9A3-C7 (antibody, V domains shown)
VH: QVQLVESGGGLVKPGGSLRLSCAASGFSLSDYYMSWIRQAPGRGLEWVSYISSSGSTIYYVDSVKGRFTISRDNAKNSLYLQINSLRAEDTAVYHCARAQWLPDFDYWGQGTLVTVSS
VL: QSALTQPPSASGSPGQSVTISCTGTSSDVGGYNYVSWYQHHPGKVPKLMIYEVSKRPSGVPDRFSGSKSGNTASLTVSGLQAEDEADYYCTSFADNNNVGFGGGTKLTVLG
notes: Both formats under this entry
Regarding B3, the values for the EC50 in experiment [1] and in experiment [5] were 0.644 nM and 0.873 nM, respectively. In addition, the binding result in [2] is “binds”; in experiment [3], “no binding (tested: 0.5 µg/ml)”; in experiment [4], “no binding (tested: 0.5 µg/ml)”. In addition, the IC50 was 0.029 nM in [6], 1.2 nM in experiment [7], 0.733 nM in experiment [10] and 0.0375 nM in experiment [11].

B4: 12A1-D4 (antibody, V domains shown)
VH: QVQLQESGPGLVKPSGTLSLTCAVSGGSISSNNWWSWVRQPPGKGLEWIGEIFHVGSTNYNPSLKSRVTISVDKSKNQFSLKLSSLTAADTAVYYCARMVGATGHYYGMDVWGQGTTVTVSS
VL: DIQLTQSPSFLSASVGDRVTITCRASQGISSSLAWYQQKPGKAPKFLIYAASTLQSGVPSRFSGSGSGTEFTLTISSLQPEDFATYYCQQLNSYPKSWTFGQGTKVEIK
notes: Both formats under this entry
As for B4, the EC50 was 0.0989 nM in experiment [1], 0.265 nM in experiment [5] and 0.42 nM in [8]. Also, the binding result in experiment [2] was “binds”; in experiment [3], “no binding (tested: 0.5 µg/ml)”; in experiment [4] it was “no binding (tested: 0.5 µg/ml)”. Also, the IC50 worked out at 0.013 nM in experiment [6], 0.37 nM in experiment [7], 0.127 nM in [10] and 0.0103 nM in [11].

B5: 2-19H2 (antibody, V domains shown)
VH: QVQLVQSGAEVKKPGASVKVSCKASGYTFTNYAIHWVRQAPGQRLEWMGWINTGLGKPKYSQLFQDRVTITRDTSASTASMELSGLRSDDTAVYYCARVGWELYFDYWGQGTLVTVSS
VL: DIQMTQSPSTLSASVGDRVTITCRASQTISSWLAWYQQKPGKAPNLLIYKASSLESGVPSRFSGSGSGTEFTLTISSLQPDDFATYYCQQYYSYWTFGQGTKVEIK
notes: VH of 19B3-B3 M23K.M63L.HC with VL of 2C4-E4; kappa; also called 2-H192
For the molecule B5, the binding result in [12] is listed as “binds”.

B6: 19B3-B3 (antibody, V domains shown)
VH: QVQLVQSGAEVKKPGASVKVSCMASGYTFTNYAIHWVRQAPGQRLEWMGWINTGLGKPKYSQMFQDRVTITRDTSASTASMELSGLRSDDTAVYYCARVGWELYFDYWGQGTLVTVSS
VL: DIQMTQSPSTLSASVGDRVTITCRASQSISSLLAWYQQKPGKAPKLLIYKASSLESGVPSRFSGSGSGTEFTLTISSLQPDDFATYFCQQYNSYWTFGQGTKVEIK
notes: Both formats under this entry
Turning to B6, the EC50 in experiment [1] was determined as 0.177 nM; in [5], 0.338 nM; in experiment [8], 0.34 nM; in experiment [9] it was 0.37 nM. The binding result in experiment [2] is listed as “binds”; in experiment [3] it was “no binding (tested: 0.5 µg/ml)”; in experiment [4], “no binding (tested: 0.5 µg/ml)”. In addition, the IC50 was determined as 0.017 nM in experiment [6], 0.4 nM in experiment [7], 0.464 nM in [10] and 0.0248 nM in experiment [11].
